Key:
[1] = target: T1, FLAG-RTCB, the catalytic subunit of the human tRNA ligase (Homo sapiens, UniProt Q9Y3I0); assay: Assay to monitor Archease function and inhibition of RNA ligase activity (linear intron substrate); format: biochemical; conditions: FLAG-RTCB from HEK293 cells with His-tagged Archease, GTP or GMPcPP at 0.5 mM
T1 construct: FLAG; made in house; host or cells: HEK293 cells (FLAG-RTCB)
Protocol: FIG. 14: Assay to monitor inhibition of RNA ligase activity. […] The linear substrate (second from bottom to top) is converted into a circular product (bottom) or a concatemer (top), which is further circularized (third from bottom to top). Ligation only took place with wild-type Archease and GTP.
The RNA ligation activity of FLAG-RTCB, the catalytic subunit of the human tRNA ligase, was determined in the presence of wildtype or mutant (D39A) Archease with the addition of GTP or non-hydrolysable GMPcPP (5′-guanylylmethylenebisphosphonate). […] The reaction was carried out with FLAG-RTCB purified from HEK293 cells and hexahistidine tagged wild-type or mutant Archease. Furthermore, GTP or GMPcPP were used at 0.5 mM concentration. A linear intron derived from a radioactively labelled pre-tRNA that was transcribed with T7 polymerase and cleaved with recombinant tRNA endonuclease from Methanocaldococcus jannaschii served as substrate. Cleavage products were resolved on preparative denaturing polyacrylamide gels and the linear intron was eluted overnight and recovered by precipitation. With reference to FIG. 14, FLAG-RTCB and wild-type Archease in the presence of GTP are able to convert the linear substrate (second from bottom to top) into a circular product (bottom) or a concatemer (top), which is further circularized (third from bottom to top). This type of assay can be used to validate candidate inhibitors of the Archease or even the ligase or to screen compound libraries in order to find inhibitory molecules.

[2] = test system: cleaved Xbp1 RNA minimal substrate; assay: In vitro Xbp1 splicing (exon ligation) assay with Ire1 pre-cleaved Xbp1 RNA; format: biochemical, human; conditions: for Stimulation of ligation of Xbp1 RNA minimal substrates by affinity purified human tRNA ligase complex: addition of recombinant protein
Excerpt: FIG. 8: The human tRNA ligase HSPC117 and Archease are both required for non-conventional splicing of Xbp1 mRNA during the Unfolded Protein Response (UPR). A) Experimental outline for in vitro splicing assay. B) An internally labeled fragment of Xbp1 mRNA was pre-cleaved with recombinant Ire1 endonuclease and supplemented with buffer or HeLa whole-cell extract (wce) for the indicated time points to allow ligation of exon halves. Formation of splice product is specific to the presence of both Ire1 and cell extract. Lanes marked “unspliced” and “spliced” contain control transcripts to mark the size of the splice product. C) HSPC117 and Archease both contribute to non-conventional splicing. 3′ end labeled Xbp1 was pre-cleaved with Ire1 and supplemented with whole-cell extract from HeLa cells treated with siRNAs as indicated above the lanes. Cell extracts were harvested 72 hrs post transfection. D) Ligase activity for non-conventional splicing resides in HSPC117 but not in Archease. In vitro splicing assay using 3′end labeled Xbp1 carried out using whole cell extract (input) or FLAG-IP from HEK293 cells stably expressing FLAG-HSPC117, FLAG-Archease or FLAG-DDX1. Ligation activity is only found in IPs of integral members of the tRNA ligase complex. E) Non-conventional splicing activity is stimulated by addition of Archease. Splicing assay using 3′ end labeled Xbp1 carried out as above with addition of buffer or recombinant protein as indicated above the lanes. […] Bovine Serum Albumine (BSA) was included as control.
For the splicing assay RNA was prepared by T7-transcrition from PCR product containing spliced and unspliced form of human Xbp1. Substrates were labelled internally using a-GTP and at the 3′end using ligation to pCp. Substrate was pre-cleaved with recombinant Ire1 for 5 mins in tRNA ligation buffer with subsequent addition of protein extract of FLAG-IP eluate to total volume of 5 μl. Samples were treated with proteinase K and phenol-chloroform extracted prior to loading on 10% PAGE gel.
Perturbation of normal ER function causes mis- or unfolded proteins to accumulate leading to activation of the unfolded protein response (UPR). One of three UPR pathway inducers in mammals, the ER transmembrane protein Ire1, cleaves the Xbp1 mRNA specifically to remove a 26 nt intron (FIG. 8A). […] None of the additional four components of the tRNA ligase complex were required for ligation in agreement with previous findings (WO 2012/28606). […] The reduced ligation activity seen in Archease-depleted extracts raised the question whether Archease is an RNA ligase or rather acts to stimulate the ligation activity of other ligases. To address this question stable cell lines expressing FLAG-tagged versions of HSPC117, Archease, and DDX1 (a DEAD-box helicase component of the human tRNA ligase complex) were generated and the Xbp1 ligation assay using FLAG-IPs was performed.
To further address the stimulatory activity of Archease both HSPC117 and Archease were depleted by RNAi and then an Archease rescue-construct containing either WT or MUT Archease was introduced.

[3] = test system: pre-cleaved tRNA substrates; assay: RNA ligase activity assay of affinity-purified FLAG-tagged Archease on pre-cleaved tRNA substrates; format: biochemical, human; conditions: FLAG immuno-precipitate
Protocol: A) Coomassie Blue stained preparations of FLAG-tagged Archease and HSPC117 affinity purified at 150 mM NaCl. B) RNA ligase activity assay of FLAG-HSPC117 and FLAG-Archease using pre-cleaved tRNA substrates. Extracts of HEK 293 cells were used as a negative control. * Indicates unspecific products.
Stable cell lines expressing a FLAG-tagged version of Archease and HSPC117 were generated to perform immuno-precipitations. Fluted FLAG-Archease was assayed for tRNA ligation in parallel with FLAG-HSPC117, which contains the entire tRNA ligase complex.

[4] = target: T2, human tRNA ligase complex (Homo sapiens, UniProt Q9Y3I0); assay: RNA ligation assay with affinity-purified tRNA ligase complex and added recombinant Archease; format: biochemical; conditions: pre-cleaved tRNA substrates or linear intron; time course
T2 construct: FLAG; made in house; Archease expressed in E. coli
Protocol: FIG. 3: Archease boosts RNA ligation by the human tRNA ligase complex. A) Time-course ligation assay with affinity-purified tRNA ligase complex and pre-cleaved tRNA substrates in absence or presence of recombinant Archease. B) Time course ligation assay with affinity purified tRNA ligase complex and isolated linear introns (2.5 μM) in absence or presence of recombinant Archease (8.5 μM) expressed in E. coli. The signals corresponding to the concatemerized intron were quantified and plotted as fraction of the total signal detectable in the respective lane.
FIG. 6: The point mutations D39A and K144A abolish the function of Archease in RNA ligation. A) Time-course of ligation activity of FLAG-HSPC117 complexes upon addition of recombinant wild-type or mutant Archease (15 μM). B) SDS-PAGE analysis of purified recombinant wild-type and mutant Archease.
Addition of Archaease influences ligase activity of affinity purified human tRNA ligase complexes.
To study the function of Archease the available NMR structure from the euryarchaeote Methanothermobacter thermautotrophicus (Yee et al., 2002) (36% identical to human protein) was used and aspartic acid (D) 39 and lysine (K) 144, both extremely conserved residues, were replaced by alanines (D39A; K144A) (FIG. 5). Wild-type and mutant versions of Archease were over-expressed in […] and tRNA ligase activity was measured. […] FIG. 6B confirms equal concentrations of recombinant proteins added to the reactions.

T1 sequence (Q9Y3I0 whole entry): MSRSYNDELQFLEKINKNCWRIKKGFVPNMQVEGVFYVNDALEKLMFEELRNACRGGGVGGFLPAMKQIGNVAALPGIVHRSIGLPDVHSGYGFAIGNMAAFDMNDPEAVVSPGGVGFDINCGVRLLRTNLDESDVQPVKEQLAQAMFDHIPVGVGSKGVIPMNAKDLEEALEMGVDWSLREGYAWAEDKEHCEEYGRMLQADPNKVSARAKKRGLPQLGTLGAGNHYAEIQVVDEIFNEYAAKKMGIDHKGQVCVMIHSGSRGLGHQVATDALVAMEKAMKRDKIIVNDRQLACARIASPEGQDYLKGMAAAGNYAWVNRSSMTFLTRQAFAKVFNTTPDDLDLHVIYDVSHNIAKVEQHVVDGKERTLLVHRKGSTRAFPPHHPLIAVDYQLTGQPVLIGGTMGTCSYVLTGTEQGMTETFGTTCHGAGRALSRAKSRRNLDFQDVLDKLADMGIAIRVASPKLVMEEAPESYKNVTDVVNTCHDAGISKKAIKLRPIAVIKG
T1 sequence (Q92499 whole entry partner): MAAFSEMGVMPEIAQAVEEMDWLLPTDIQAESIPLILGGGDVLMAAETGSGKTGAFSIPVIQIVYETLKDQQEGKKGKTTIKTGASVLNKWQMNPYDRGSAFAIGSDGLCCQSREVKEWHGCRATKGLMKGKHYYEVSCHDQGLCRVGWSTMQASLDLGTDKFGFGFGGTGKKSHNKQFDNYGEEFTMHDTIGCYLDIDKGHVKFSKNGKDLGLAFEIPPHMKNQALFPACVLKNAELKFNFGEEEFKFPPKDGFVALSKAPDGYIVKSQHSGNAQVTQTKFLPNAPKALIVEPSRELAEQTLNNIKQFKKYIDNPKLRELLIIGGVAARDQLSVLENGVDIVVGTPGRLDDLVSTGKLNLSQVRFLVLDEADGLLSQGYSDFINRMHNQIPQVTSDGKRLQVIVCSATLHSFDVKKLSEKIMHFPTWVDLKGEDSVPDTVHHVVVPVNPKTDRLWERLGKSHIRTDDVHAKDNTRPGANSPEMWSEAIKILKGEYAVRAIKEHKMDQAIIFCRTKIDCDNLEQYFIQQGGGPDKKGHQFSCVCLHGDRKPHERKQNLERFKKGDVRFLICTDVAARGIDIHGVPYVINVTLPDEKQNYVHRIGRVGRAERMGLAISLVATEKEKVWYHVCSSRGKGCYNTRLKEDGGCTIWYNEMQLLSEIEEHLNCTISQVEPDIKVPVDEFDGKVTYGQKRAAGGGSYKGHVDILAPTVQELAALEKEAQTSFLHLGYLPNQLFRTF
T1 sequence (Q52LJ0 whole entry partner): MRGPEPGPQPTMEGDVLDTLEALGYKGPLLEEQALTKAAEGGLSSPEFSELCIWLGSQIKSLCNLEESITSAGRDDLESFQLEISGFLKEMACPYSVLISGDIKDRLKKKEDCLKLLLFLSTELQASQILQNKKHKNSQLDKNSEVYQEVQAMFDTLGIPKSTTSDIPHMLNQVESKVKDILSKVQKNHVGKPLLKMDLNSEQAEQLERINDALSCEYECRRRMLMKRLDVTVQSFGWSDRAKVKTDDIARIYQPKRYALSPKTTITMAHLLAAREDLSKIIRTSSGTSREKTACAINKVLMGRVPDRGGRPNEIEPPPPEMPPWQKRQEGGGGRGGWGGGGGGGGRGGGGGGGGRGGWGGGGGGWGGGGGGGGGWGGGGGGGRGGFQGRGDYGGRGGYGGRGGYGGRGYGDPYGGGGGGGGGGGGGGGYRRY
T1 sequence (Q9BVC5 whole entry partner): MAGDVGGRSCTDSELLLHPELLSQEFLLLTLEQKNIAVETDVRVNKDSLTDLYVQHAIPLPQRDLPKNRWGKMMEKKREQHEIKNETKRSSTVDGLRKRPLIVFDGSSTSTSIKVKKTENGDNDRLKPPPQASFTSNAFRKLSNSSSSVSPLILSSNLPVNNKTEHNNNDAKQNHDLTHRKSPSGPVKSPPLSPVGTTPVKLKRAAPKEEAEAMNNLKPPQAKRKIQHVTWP
T1 sequence (Q9Y224 whole entry partner): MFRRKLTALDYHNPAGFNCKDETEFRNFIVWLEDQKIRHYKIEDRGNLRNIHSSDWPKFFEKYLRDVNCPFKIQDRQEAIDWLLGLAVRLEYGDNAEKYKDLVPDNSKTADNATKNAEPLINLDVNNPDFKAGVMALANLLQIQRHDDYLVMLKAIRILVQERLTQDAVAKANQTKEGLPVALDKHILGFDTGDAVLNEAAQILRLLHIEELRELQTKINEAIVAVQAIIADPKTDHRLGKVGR
T2 sequence (Q9Y3I0 whole entry): as the sequence (Q9Y3I0 whole entry) above
T2 sequence (Q92499 whole entry partner): as the sequence (Q92499 whole entry partner) above
T2 sequence (Q52LJ0 whole entry partner): as the sequence (Q52LJ0 whole entry partner) above
T2 sequence (Q9BVC5 whole entry partner): as the sequence (Q9BVC5 whole entry partner) above
T2 sequence (Q9Y224 whole entry partner): as the sequence (Q9Y224 whole entry partner) above

Row | Molecule | Stimulation of ligation of Xbp1 RNA minimal substrates by affinity purified human tRNA ligase complex [2] | RNA ligase activity of affinity purified tRNA ligase complex upon addition of recombinant Archease [4] | other results
1 | Nc1nc2c(ncn2[C@@H]2O[C@H](COP(=O)(O)CP(=O)(O)OP(=O)(O)O)[C@@H](O)[C@H]2O)c(=O)[nH]1 [GMPcPP, 5′-guanylylmethylenebisphosphonate] |  |  | RNA ligation activity of FLAG-RTCB [1]: strongly inhibits the ligation reaction; RNA ligation activity of FLAG-RTCB ([1]; listed as GMPCPP): inhibits the reaction
2 | FLAG-tagged Archease: FLAG-tagged version of Archease affinity purified from stable cell lines (protein, left off: small tags and cut ends) MAQEEEDVRDYNLTEEQKAIKAKYPPVNRKYEYLDHTADVQLHAWGDTLEEAFEQCAMAMFGYMTDTGTVEPLQTVEVETQGDDLQSLLFHFLDEWLYKFSADEFFIPREVKVLSIDQRNFKLRSIGWGEEFSLSKHPQGTEVKAITYSAMQVYNEENPEVFVIIDI |  |  | Xbp1 ligation activity of FLAG-IP ([2]; FLAG-IP from stable HEK293 cells): no ligation was detected; RNA ligase activity of the affinity-purified protein itself [3]: RNA ligase activity was only detectable in reactions containing affinity-purified RNA ligase complex but not FLAG-tagged Archease
3 | D39A: Archease point mutant, aspartic acid 39 replaced by alanine; inactive (protein, listed as Homo sapiens) MAQEEEDVRDYNLTEEQKAIKAKYPPVNRKYEYLDHTAAVQLHAWGDTLEEAFEQCAMAMFGYMTDTGTVEPLQTVEVETQGDDLQSLLFHFLDEWLYKFSADEFFIPREVKVLSIDQRNFKLRSIGWGEEFSLSKHPQGTEVKAITYSAMQVYNEENPEVFVIIDI | inactive | neither of the mutant versions of Archease stimulated the low levels of ligation | 
4 | K144A: Archease point mutant, lysine 144 replaced by alanine; inactive (protein, listed as Homo sapiens) MAQEEEDVRDYNLTEEQKAIKAKYPPVNRKYEYLDHTADVQLHAWGDTLEEAFEQCAMAMFGYMTDTGTVEPLQTVEVETQGDDLQSLLFHFLDEWLYKFSADEFFIPREVKVLSIDQRNFKLRSIGWGEEFSLSKHPQGTEVAAITYSAMQVYNEENPEVFVIIDI | inactive | neither of the mutant versions of Archease stimulated the low levels of ligation | 

Source: patent publication US9296994B2, “Archease as RNA ligaes complex member” (IMBA—INSTITUT FÜR MOLEKULARE BIOTECHNOLOGIE GMBH, priority 2012, dated 2016)
